Here are results for seven molecules from publication PMC8551123, “Pentose degradation in archaea: Halorhabdus species degrade D-xylose, L-arabinose and D-ribose via bacterial-type pathways” (Extremophiles, 2020).

The target in data set [1] is Ribokinase of Halorhabdus tiamatea (HTIA_0439) (Halorhabdus tiamatea). Description: SEC; Superdex 200 HiLoad column (1.6 by 60 cm), flow rate 1 ml/min, calibrated with the HMW and LMW kits; oligomeric state from the native mass and the calculated subunit mass.
In data set [2] the target is Ribose-5-phosphate isomerase of Halorhabdus utahensis (Huta_0832) (Halorhabdus utahensis). Described as above.
Substrate in data set [3]: Nc1ncnc2c1ncn2[C@@H]1O[C@H](COP(=O)(O)OP(=O)(O)OP(=O)(O)O)[C@@H](O)[C@H]1O
Description: coupled pyruvate kinase/lactate dehydrogenase assay (NADH). Conditions: D-ribose co-substrate (5 mM standard), 42 °C, pH 7.5 bis-tris, 1.5 M KCl, 10 mM MgCl2. The class given is biochemical, Halorhabdus tiamatea.

Data set [4] deals with the molecule itself. Description: SEC; Superdex 200 HiLoad column (1.6 by 60 cm), flow rate 1 ml/min, calibrated with the HMW and LMW kits; oligomeric state from the native mass and the calculated subunit mass.
Substrate in data set [5]: Nc1ncnc2c1ncn2[C@@H]1O[C@H](COP(=O)(O)OP(=O)(O)OP(=O)(O)O)[C@@H](O)[C@H]1O
Description: coupled pyruvate kinase/lactate dehydrogenase assay (NADH). It counts as biochemical, Halorhabdus utahensis. The following applies: 37 °C.

Substrate in data set [6]: O=C(CO)[C@@H](O)[C@@H](O)CO
The description is as above. It counts as biochemical, Halorhabdus utahensis. The following applies: ATP co-substrate (10 mM standard), 37 °C, pH 8.0, 1.5 M KCl, 50 mM MgCl2.

Substrate in data set [7]: O=C(CO)[C@@H](O)[C@H](O)CO
The data set is described as above. Conditions: ATP co-substrate (12.5 mM standard), 37 °C, pH 8.0, 2 M KCl, 10 mM MgCl2. The class given is biochemical, Halorhabdus utahensis.

In the case of “Ribokinase of Halorhabdus tiamatea (HTIA_0439) (enzyme)”, in data set [1], the stoichiometry N is 2.

In the case of “Ribose-5-phosphate isomerase of Halorhabdus utahensis (Huta_0832) (enzyme)”, the stoichiometry N in data set [2] was 4.

B1: ribokinase (HTIA_0439) (Halorhabdus tiamatea SARL4B) (protein)
chain: MGNVYVAGSINQDIAVRLERRPQPGETVPGESASFGLGGKGANQAIAAARSGAAVELIGAVGDDRFGEELLADLDTEDGLSTAGVHRASNTSTGVALITVDADSENAIVAVPGANAALAPADVGDVGMEDDAVVLSQFEIPQPTIRTFFEQAHAQGARTVLNPAPAETVREDLLERVDFLVVNETEALFYADGDSKGQLSQDELVETAAALRTHDEQVVVVTLGEAGVFASTPSETIELDAYAVDPVDTTGAGDAFVGAFATALGDGLRLRDALDVGAAAGALATTQTGAAPSLPTRAAIEDLRADE
notes: full length, overexpressed, recombinant (Haloferax volcanii H1209, pTA963, His tag by general methods)
Regarding B1, the Km in data set [3] worked out at 0.1 mM.

B2: Xylose isomerase of Halorhabdus utahensis (Huta_2443) (enzyme, UniProt C7NMH0 1-438, looked up)
chain: MSEYFPEIDEITYEGPDSQDPLSFSYYDPEKQVGEKTMAEHLRFSVAYWHTLREDGSDPFGAGTMQRPWDDIDDPMEKAHARVDAAFEFFEKLGVPYFCFHDRDIAPKGEDLAESNENLDEIVDHVEEKIDETGVELLWGTAQLFMEPKFAHGAATSPNPDVFAHAAGQVKKAMEVTERLGGENFVFWGGREGYKTLLNSDMGRELDNMGRFFRMAADYADDIGFDGQLLIEPKPKEPTKHQYDFDAANVMAFLREYGLEDRFNLNLEANHATLAGHTFRHELQYARVNDALGSVDANQGDKLIGWDTDEFPTDVYMTTLAMYEVLENDGIAPGGLNFDAKVRRESFEPVDLFYGHVVGMDTFARGLEVAHELREDGVFADVIDDRYGYDAGIGAEIAAESTDFEALAEYALENDGIELESGRQEKLKAVLNSYILES
notes: xylose isomerase, Halorhabdus utahensis, gene Huta_2443 (1317 nucleotides); calculated subunit mass 49.3 kDa; Gene amplified from genomic DNA and cloned into pTA963; Elution from Ni-NTA implies a His tag; also called class II xylose isomerase; source: Haloferax volcanii H1209, purified (Ni-NTA, size-exclusion chromatography)
Take B2: in data set [4], the “stoichiometry N” value was 4.

B3: Arabinose isomerase of Halorhabdus utahensis (Huta_1154) (enzyme, UniProt C7NML7 1-495, looked up)
chain: MSPIPHGTDFDDLEVWFLTGSQHLYGEETLDLVAEDAREVAAGLDDDDRIPVSVEFKSVLTTADAIESVVREANASEDCIGLITWMHTFSPAKMWIRGLQALDVPFVHLHTQFNRELPYDEIDMDFMNANQSAHGGREFGHIVSRLDIDRKVVVGHWEDDDVREQLDTWARAAAARHELRGAKIARFGDNMRDVAVTEGDKVSAQMAFGASVDGYGLGDLVEFVEDVTESEIDDLLEEYDQQYELAAELQADGDRRDSLREAARIELGIRAFLEDGEFVGFTTTFENLTGLSQLPGLAVQRLMADGYGFGPEGDWKSALLTRAMKVMGQGLNGGTSLMEHYTYDLTEGDEKVLGAHMLEICESIAGEQPRLEIHPLDIGGKADPVRAVFDADTGPAINASLVDMGDRFRLITNDVESVGPDEPLPELPVARAVWKPEPDFETAIEAWIKAGGAHHTGYSQAVTNEHLEDFASMTGIEHLHVGADTDIADVERKLS
notes: arabinose isomerase, Halorhabdus utahensis, gene Huta_1154 (1488 nucleotides); calculated subunit mass 55.4 kDa; Gene amplified from genomic DNA and cloned into pTA963; source: Haloferax volcanii H1209, purified (Ni-NTA, size-exclusion chromatography)
For B3, the “stoichiometry N” value in data set [4] is 6.

B4: Ribulokinase of Halorhabdus utahensis (Huta_1150) (enzyme, UniProt C7NMB8 1-512, looked up)
chain: MDGQYLVGTDIGTNSTKTILVSPEGEVLGTGNAGYEVEQPEPSWAQQWPDVWVEATYDSIQQAIDEAEVDPSEIRGISISSLYGGAGVPLDSEGEPVYPCLIWMDRRATDQVEWVKENVDLDRLFEITGNYVDSYYGYTKIRWIKEHEPEVWDDIENFVPPNNYVEYVMTDELAVDYSSAGNVGGVFDIHDLAWSEEACEMLEIPIEKFPERLVPTEEIVGEVTADAAEASGLPEGTPVLAGGVDAPMATLAAGAFEEGDNVSMMGTSTCWGTIHEGAGLDQQLVSMPHVAEGEEKIYTWGGSATTGGLIEWFKDEFGGPEEQAGELVDVDPFELLNMKAEEIPAGSEGLVALPYFKGERSPIWDPDARGMFTGLSLYHGKSHMYRALMEAGGYSLRHNVEVAEEIGIPLNDETSVVGGVSNSELWMQILADVTGRRMEVPAGGVGAPLGDALVVGVGTGLFEDYDVATEWTETGEVYTPEPENVDTYDEYYDIYKRLYQNTKDEMHDLAQL
notes: ribulokinase, Halorhabdus utahensis, gene Huta_1150 (1539 nucleotides); calculated subunit mass 56.1 kDa; Gene amplified from genomic DNA and cloned into pTA963; also called L-ribulokinase; source: Haloferax volcanii H1209, purified (Ni-NTA, size-exclusion chromatography)
B4: the Km came to 4.2 mM in data set [5] (L-ribulose co-substrate (1 mM standard), pH 8.0, 1.5 M KCl, 50 mM MgCl2) and 0.55 mM in data set [6]. Further, in data set [4], the “stoichiometry N” value is 6.

B5: Xylulokinase of Halorhabdus utahensis (Huta_2446) (enzyme, UniProt C7NMH3 1-515, looked up)
chain: MGLDLGTSGVKTLVADADGEVLATNTEEYPLYQPEVGWSEQDPADWWAATLDGIEAVLEDPAVDPEDVEALGLTGQMHGSVFLDGEGEVLRPAILWNDTRTSAQCDEIEERVGEDRIIELASNPPFEGFTAPKILWVQEHEPEVYDQTESILLPKDFIRYKLTEAFATDVSDASGTLLLDVGERDWSPEILDELDISRDLLPEVYESPEVTGAVTDAVAERTGLPAGTPVVAGAGDNAAGAVGSGVVGDGDVWGSIGTSGVIFVATDDERTDPEGRVHTFCHAVPDTWHVMGVMLSAGGAFSWFSETLGGPEEVVADQLGKDAFEVLTDEAATVDPGSEGLIFLPYLNGERTPHRDADARGAFFGLSTRHDKSHVVRSVLEGVTYGLRDSFRIVRDDLGVDTGQLKAAGGGAKSPLWKQIQADIFDAEILTPNVDEGPAYGSALLAGVGADVYDNVADATEQAVDIVDSVEPIDQHTRVYDEYYEIYESLYPALEDSFAANSAAIESAQDILDEA
notes: xylulokinase, Halorhabdus utahensis, gene Huta_2446 (1548 nucleotides); calculated subunit mass 55.1 kDa; Gene amplified from genomic DNA and cloned into pTA963; source: Haloferax volcanii H1209, purified (Ni-NTA, size-exclusion chromatography, Phenyl-Sepharose)
For the molecule B5, the Km in data set [5] (D-xylulose co-substrate (10 mM standard), pH 8.0, 2 M KCl, 10 mM MgCl2) was 5.68 mM; in data set [7], 0.31 mM. Besides, the “stoichiometry N” value in data set [4] was 2.
